Results as given in publication PMC9508830.

Molecular target: GAr fused to the N-terminus of p53 (GAr-p53), nascent peptide on polysomes (Epstein-Barr virus | not stated)
Assay: proximity ligation; PLEA (PLA ELISA): polysomes of cycloheximide-treated H1299 lysates captured on 96-well plates with goat anti-RPL5, increasing amounts of polysomes; in vitro PLA with anti-p53 (rabbit) and anti-NACA (mouse)

## nascent polypeptide-associated complex subunit alpha (NACA), endogenous in H1299 cells (from UniProt Q13765 1-215) (natural protein)
  fold interaction (PLEA signal) against p53: 3 fold
